From PMC9482650, “Quantitative fragmentomics allow affinity mapping of interactomes” (Nature Communications, 2022) come the findings set out here.

Some targets named below: MAGI1_1, Q96QZ7; LIMK2, P53671; FRMPD2_1, Q68DX3; Inadl_3, Q8NI35; GRIP2_4, Q9C0E4; Inadl_8, Q8NI35; MAGI2_4, Q86UL8; DLG5_1, Q8TDM6; DLG1_1, Q12959; NHERF4_1, Q86UT5-2; IL16_3, Q14005; SCRIB_3, Q14160.
Holding throughout (experiment): holdup assay
What all share (parameters): key: below the threshold = too weak to quantify, mostly under pKd 3.1 to 4

The target of the next experiment is T1, MPDZ_12, O75970.
T1 sequence (O75970 1857-1958, limits assumed, looked up): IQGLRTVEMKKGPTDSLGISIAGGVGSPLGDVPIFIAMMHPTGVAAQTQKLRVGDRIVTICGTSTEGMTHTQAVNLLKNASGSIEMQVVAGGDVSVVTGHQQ

A further experiment addresses T2, SNTG2, Q9NY99.
T2 sequence (Q9NY99 68-166, limits assumed, looked up): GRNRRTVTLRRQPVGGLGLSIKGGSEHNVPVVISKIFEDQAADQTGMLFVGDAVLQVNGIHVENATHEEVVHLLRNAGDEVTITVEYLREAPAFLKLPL

The target in another experiment is T3, GRIP1_4, Q9Y3R0.
T3 sequence (Q9Y3R0 467-571, limits assumed, looked up): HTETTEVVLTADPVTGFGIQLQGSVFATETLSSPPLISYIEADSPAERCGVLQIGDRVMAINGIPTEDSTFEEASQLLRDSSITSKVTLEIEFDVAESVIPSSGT

In a further experiment the target is T4, TX1BP3, O14907.
T4 sequence (O14907 10-122, limits assumed, looked up): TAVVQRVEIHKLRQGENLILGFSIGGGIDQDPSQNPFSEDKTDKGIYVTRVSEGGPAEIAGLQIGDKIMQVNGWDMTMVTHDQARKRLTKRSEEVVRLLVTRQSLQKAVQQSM

Another experiment addresses T5, LNX2_2, Q8N448.
T5 sequence (Q8N448 334-432, limits assumed, looked up): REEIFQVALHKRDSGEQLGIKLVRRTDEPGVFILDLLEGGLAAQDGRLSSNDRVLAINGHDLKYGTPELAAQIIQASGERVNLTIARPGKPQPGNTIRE

The target of another experiment is T6, DFNB31_1, Q9P202.
T6 sequence (Q9P202 135-233, limits assumed, looked up): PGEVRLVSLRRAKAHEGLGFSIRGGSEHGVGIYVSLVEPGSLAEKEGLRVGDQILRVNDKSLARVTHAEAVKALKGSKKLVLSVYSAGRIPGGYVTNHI

The target in a further experiment is T7, MPDZ_10, O75970.
T7 sequence (O75970 1624-1722, limits assumed, looked up): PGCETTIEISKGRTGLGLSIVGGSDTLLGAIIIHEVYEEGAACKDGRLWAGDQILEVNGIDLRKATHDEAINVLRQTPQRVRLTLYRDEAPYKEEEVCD

A further experiment concerns the target T8, RADIL, Q96JH8.
T8 sequence (Q96JH8 971-1071, limits assumed, looked up): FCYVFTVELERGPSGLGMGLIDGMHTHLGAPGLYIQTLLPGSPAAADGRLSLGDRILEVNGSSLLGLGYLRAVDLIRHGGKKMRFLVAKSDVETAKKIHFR

The target of a further experiment is T9, PDZD2_2, O15018.
T9 sequence (O15018 329-429, limits assumed, looked up): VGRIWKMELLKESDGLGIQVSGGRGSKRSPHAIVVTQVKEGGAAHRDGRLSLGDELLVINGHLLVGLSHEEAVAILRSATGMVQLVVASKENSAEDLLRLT

In a further experiment the target is T10, DLG3_1, Q92796.
T10 sequence (Q92796 125-227, limits assumed, looked up): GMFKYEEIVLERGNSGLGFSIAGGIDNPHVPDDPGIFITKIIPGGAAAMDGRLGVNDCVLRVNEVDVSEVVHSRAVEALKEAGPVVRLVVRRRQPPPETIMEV

A further experiment concerns the target T11, DFNB31_2, Q9P202.
T11 sequence (Q9P202 274-371, limits assumed, looked up): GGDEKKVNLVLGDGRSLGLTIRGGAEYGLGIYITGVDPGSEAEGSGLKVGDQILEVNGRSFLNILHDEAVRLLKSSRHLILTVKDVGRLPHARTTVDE

The target in another experiment is T12, CARD11, Q9BXL7.
T12 sequence (Q9BXL7 662-765, limits assumed, looked up): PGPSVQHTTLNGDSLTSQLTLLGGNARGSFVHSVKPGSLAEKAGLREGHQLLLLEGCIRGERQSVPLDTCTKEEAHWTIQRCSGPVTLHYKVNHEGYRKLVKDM

Where [1] appears, read: plain residues with an end cap or a label only (N-terminal biotin on a linker: ado-ado).
[2] abbreviates: plain residues with an end cap or a label only (N-terminal biotin on a linker: ahx).
Where [3] appears, read: plain residues with an end cap or a label only (N-terminal biotin on a linker: ttds).

Chain of Inadl_3, Q8NI35 (Q8NI35 359-469): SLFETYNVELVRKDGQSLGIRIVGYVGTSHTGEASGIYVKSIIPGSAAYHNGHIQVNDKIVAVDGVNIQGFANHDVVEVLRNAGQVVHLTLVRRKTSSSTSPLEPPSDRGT
Chain of MAGI1_1, Q96QZ7 (Q96QZ7 1-106): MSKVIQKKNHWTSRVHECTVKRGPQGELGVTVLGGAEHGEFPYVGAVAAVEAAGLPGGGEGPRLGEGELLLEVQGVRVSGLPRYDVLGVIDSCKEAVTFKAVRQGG
Chain of Inadl_8, Q8NI35 (Q8NI35 1425-1530): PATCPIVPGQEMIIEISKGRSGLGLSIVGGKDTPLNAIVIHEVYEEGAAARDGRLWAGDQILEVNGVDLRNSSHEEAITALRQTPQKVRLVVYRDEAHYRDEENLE
Chain of MAGI2_4, Q86UL8 (Q86UL8 772-865): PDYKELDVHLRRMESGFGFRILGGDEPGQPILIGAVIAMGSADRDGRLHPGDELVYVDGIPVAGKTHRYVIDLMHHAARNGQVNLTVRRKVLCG
Chain of FRMPD2_1, Q68DX3 (Q68DX3 770-861): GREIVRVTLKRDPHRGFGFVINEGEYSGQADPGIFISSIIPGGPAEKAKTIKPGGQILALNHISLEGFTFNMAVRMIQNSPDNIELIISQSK
Chain of IL16_3, Q14005 (Q14005 1107-1207): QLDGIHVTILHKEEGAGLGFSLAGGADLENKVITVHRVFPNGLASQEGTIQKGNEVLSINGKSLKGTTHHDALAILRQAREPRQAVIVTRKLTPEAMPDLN
Chain of DLG5_1, Q8TDM6 (Q8TDM6 617-713): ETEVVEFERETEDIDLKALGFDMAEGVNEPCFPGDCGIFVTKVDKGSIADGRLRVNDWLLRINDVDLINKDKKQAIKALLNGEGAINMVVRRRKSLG
Chain of NHERF4_1, Q86UT5-2 (Q86UT5 other isoform, or with tags, fused parts or gaps): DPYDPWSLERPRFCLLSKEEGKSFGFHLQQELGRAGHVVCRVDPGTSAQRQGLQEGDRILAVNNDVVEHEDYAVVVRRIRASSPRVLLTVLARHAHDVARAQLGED
Chain of LIMK2, P53671 (P53671 143-248): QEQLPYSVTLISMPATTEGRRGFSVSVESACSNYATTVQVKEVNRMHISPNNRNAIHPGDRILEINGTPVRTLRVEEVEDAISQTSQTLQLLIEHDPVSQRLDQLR
Chain of GRIP2_4, Q9C0E4 (Q9C0E4 446-548): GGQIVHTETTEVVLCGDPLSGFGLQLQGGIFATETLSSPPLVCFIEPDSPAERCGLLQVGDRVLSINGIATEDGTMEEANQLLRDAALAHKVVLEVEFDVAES
Chain of SCRIB_3, Q14160 (Q14160 999-1103): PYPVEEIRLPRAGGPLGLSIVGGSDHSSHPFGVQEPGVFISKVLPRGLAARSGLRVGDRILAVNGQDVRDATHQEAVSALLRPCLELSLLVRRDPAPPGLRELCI

B1: U2AF2, P26368 (peptide)
chain: PDSYHRRDFW
A word on the pKd: it is the Kd on a negative log10 scale, so that one unit is a factor of ten. Take B1: the pKd result with MAGI1_1, Q96QZ7 (setting [1]) was “below the threshold”; with LIMK2, P53671 (setting [1]) it was “below the threshold”; with MPDZ_12, O75970 (setting [1]) it was “below the threshold”; with FRMPD2_1, Q68DX3 (setting [1]) it was “below the threshold”; in the experiment with SNTG2, Q9NY99 (setting [1]), 3.72; with Inadl_3, Q8NI35 (setting [1]), “below the threshold”. In addition, the pKd entry was “below the threshold” with GRIP1_4, Q9Y3R0 (setting [1]); “below the threshold” with GRIP2_4, Q9C0E4 (setting [1]); 3.48 in the experiment with Inadl_8, Q8NI35 (setting [1]); “below the threshold” in the experiment with TX1BP3, O14907 (setting [1]); 3.54 with MAGI2_4, Q86UL8 (setting [1]); “below the threshold” with DLG5_1, Q8TDM6 (setting [1]). Besides, the pKd result with LNX2_2, Q8N448 (setting [1]) is “below the threshold”; with DLG1_1, Q12959 (setting [1]) it was “below the threshold”; with DFNB31_1, Q9P202 (setting [1]), 3.57; in the experiment with MPDZ_10, O75970 (setting [1]) it was “below the threshold”; with RADIL, Q96JH8 (setting [1]) it was “below the threshold”; with PDZD2_2, O15018 (setting [1]), “below the threshold”. For the same molecule, the pKd entry with DLG3_1, Q92796 (setting [1]) is listed as “below the threshold”; with DFNB31_2, Q9P202 (setting [1]) it was “below the threshold”; in the experiment with NHERF4_1, Q86UT5-2 (setting [1]), “below the threshold”; with IL16_3, Q14005 (setting [1]), “below the threshold”; with SCRIB_3, Q14160 (setting [1]), “below the threshold”; with CARD11, Q9BXL7 (setting [1]), “below the threshold”.

B2: DLL1, O00548 (peptide)
chain: KDECVIATEV
As for B2, the pKd entry with MAGI1_1, Q96QZ7 (setting [2]) was “below the threshold”; with LIMK2, P53671 (setting [2]) it was “below the threshold”; with MPDZ_12, O75970 (setting [2]) it was “below the threshold”; with FRMPD2_1, Q68DX3 (setting [2]) it was “below the threshold”; with SNTG2, Q9NY99 (setting [2]), “below the threshold”; with Inadl_3, Q8NI35 (setting [2]), 3.5. Moreover, the pKd result was “below the threshold” in the experiment with GRIP1_4, Q9Y3R0 (setting [2]); “below the threshold” with GRIP2_4, Q9C0E4 (setting [2]); 3.64 in the experiment with Inadl_8, Q8NI35 (setting [2]); “below the threshold” with TX1BP3, O14907 (setting [2]); 3.64 with MAGI2_4, Q86UL8 (setting [2]); “below the threshold” in the experiment with DLG5_1, Q8TDM6 (setting [2]). Also, the pKd is 4.27 with LNX2_2, Q8N448 (setting [2]); 3.72 with DLG1_1, Q12959 (setting [2]); “below the threshold” with DFNB31_1, Q9P202 (setting [2]); 3.48 in the experiment with MPDZ_10, O75970 (setting [2]); 3.61 in the experiment with RADIL, Q96JH8 (setting [2]); 4.51 in the experiment with PDZD2_2, O15018 (setting [2]). For the same molecule, the pKd result is “below the threshold” with DLG3_1, Q92796 (setting [2]); “below the threshold” in the experiment with DFNB31_2, Q9P202 (setting [2]); “below the threshold” in the experiment with NHERF4_1, Q86UT5-2 (setting [2]); “below the threshold” with IL16_3, Q14005 (setting [2]); 4.11 with SCRIB_3, Q14160 (setting [2]); “below the threshold” with CARD11, Q9BXL7 (setting [2]).

B3: MAPK12, P53778 (peptide)
chain: GARVSKETPL
Consider B3, for which the pKd result is “below the threshold” with MAGI1_1, Q96QZ7 (setting [3]); “below the threshold” with LIMK2, P53671 (setting [3]); “below the threshold” with MPDZ_12, O75970 (setting [3]); “below the threshold” with FRMPD2_1, Q68DX3 (setting [3]); 4.18 with SNTG2, Q9NY99 (setting [3]); “below the threshold” with Inadl_3, Q8NI35 (setting [3]). Further, the pKd entry with GRIP1_4, Q9Y3R0 (setting [3]) is “below the threshold”; with GRIP2_4, Q9C0E4 (setting [3]), “below the threshold”; with Inadl_8, Q8NI35 (setting [3]), “below the threshold”; with TX1BP3, O14907 (setting [3]) it was 4.26; in the experiment with MAGI2_4, Q86UL8 (setting [3]), “below the threshold”; with DLG5_1, Q8TDM6 (setting [3]) it was “below the threshold”. Besides, the pKd result with LNX2_2, Q8N448 (setting [3]) was “below the threshold”; in the experiment with DLG1_1, Q12959 (setting [3]), 4.08; with DFNB31_1, Q9P202 (setting [3]), 3.95; with MPDZ_10, O75970 (setting [3]) it was “below the threshold”; in the experiment with RADIL, Q96JH8 (setting [3]) it was “below the threshold”; with PDZD2_2, O15018 (setting [3]), “below the threshold”. Moreover, the pKd was 3.49 with DLG3_1, Q92796 (setting [3]); “below the threshold” with DFNB31_2, Q9P202 (setting [3]); 3.85 with NHERF4_1, Q86UT5-2 (setting [3]); “below the threshold” with IL16_3, Q14005 (setting [3]); 5.07 in the experiment with SCRIB_3, Q14160 (setting [3]); “below the threshold” with CARD11, Q9BXL7 (setting [3]).

B4: GDA, Q9Y2T3 (peptide)
chain: KQVVPFSSSV
Turning to B4, the pKd result in the experiment with MAGI1_1, Q96QZ7 (setting [3]) is “below the threshold”; with LIMK2, P53671 (setting [3]), “below the threshold”; with MPDZ_12, O75970 (setting [3]) it was 3.66; with FRMPD2_1, Q68DX3 (setting [3]), “below the threshold”; with SNTG2, Q9NY99 (setting [3]), “below the threshold”; with Inadl_3, Q8NI35 (setting [3]) it was “below the threshold”. In addition, the pKd result with GRIP1_4, Q9Y3R0 (setting [3]) is “below the threshold”; in the experiment with GRIP2_4, Q9C0E4 (setting [3]) it was “below the threshold”; with Inadl_8, Q8NI35 (setting [3]), 4.89; with TX1BP3, O14907 (setting [3]), 4.31; with MAGI2_4, Q86UL8 (setting [3]) it was 3.69; with DLG5_1, Q8TDM6 (setting [3]), “below the threshold”. The pKd in the experiment with LNX2_2, Q8N448 (setting [3]) was 3.65; with DLG1_1, Q12959 (setting [3]), 3.89; in the experiment with DFNB31_1, Q9P202 (setting [3]) it was “below the threshold”; with MPDZ_10, O75970 (setting [3]) it was 3.93; in the experiment with RADIL, Q96JH8 (setting [3]), 3.76; with PDZD2_2, O15018 (setting [3]), 4.93. The negative-log Kd (pKd) entry with DLG3_1, Q92796 (setting [3]) is “below the threshold”; in the experiment with DFNB31_2, Q9P202 (setting [3]), “below the threshold”; in the experiment with NHERF4_1, Q86UT5-2 (setting [3]), “below the threshold”; with IL16_3, Q14005 (setting [3]) it was “below the threshold”; with SCRIB_3, Q14160 (setting [3]), 3.93; with CARD11, Q9BXL7 (setting [3]), “below the threshold”.
